Substrate in this series: CC(=O)N[C@@H](CC(=O)O)C(=O)N[C@@H](CCC(=O)O)C(=O)N[C@H](C(=O)N[C@@H](CC(=O)O)C(=O)N[C@@H](CSSC(C)(C)C)C(=O)N[C@@H](Cc1cn(CC[N+](C)(C)C[B-](F)(F)F)nn1)C(=O)Nc1ccc2nc(C#N)sc2c1)C(C)C
The experiment in a line: Enzyme kinetics study of cleavage of 1. The format is biochemical, human. The note with it: other: 1 at 0.1-2 mM, caspase-3 0.4 μg/1 mL, assay buffer pH 7.4, 37 °C, 1 h, HPLC. As to the method:
Figure S17. (A) HPLC traces of probe 1 incubated with the cell lysates of apoptotic HeLa cells for 8 h.
Bottom: probe 1 alone; Top: reduced product (*) and cyclized product (#). (B) The content of 1-dimer after incubation with the cell lysates of apoptotic HeLa cells at different time.
For the enzyme-controlled cleavage kinetics studies, the probe 1 at different concentrations (0.1, 0.25, 0.5, 1, and 2 mM) was incubated with the caspase-3 (0.4 μg/1 mL) assay buffer (pH = 7.4) containing 50 mM HEPES, 100 mM NaCl, 1 mM EDTA, 1 mM DTT, 10% glycerol, and 0.1% CHAPS at 37 °C for 1 h, respectively. Then the caspase-3-cleaved intermediates were characterized by HPLC, and the kinetic parameters were determined according to the method reported previously. 4,5
Figure S18. Kinetic studies for the cleavage of probe 1 towards caspase-3.
Biocompatibility of 1 and 1-NPs
One cancer cell line (HeLa) and three normal cell lines (GES-1, LO2 and HEK293) were cultured in DMEM supplemented with 10% fetal bovine serum (FBS, Gibco). The cells were grown in tissue culture dishes and kept in a humidified atmosphere of 5% CO 2 at 37 °C. The […]
(1 picture or pasted object on this page, not shown here)

Drawing on paper PMC6815954, “Rational design of caspase-responsive smart molecular probe for positron emission tomography imaging of drug-induced apoptosis” (Theranostics, 2019), this text covers Km, kcat and kcat/Km for 1 protein.

B1: caspase-3 (Homo sapiens) (protein)
chain 1: SGISLDNSYKMDYPEMGLCIIINNKNFHKSTGMTSRSGTDVDAANLRETFRNLKYEVRNKNDLTREEIVELMRDVSKEDHSKRSSFVCVLLSHGEEGIIFGTNGPVDLKKITNFFRGDRCRSLTGKPKLFIIQACRGTELDCGIETD
chain 2: SGVDDDMACHKIPVEADFLYAYSTAPGYYSWRNSKDGSWFIQSLCAMLKQYADKLEFMHILTRVNRKVATEFESFSFDATFHAKKQIPCIVSMLTKELYFYH
In the case of B1, the Michaelis-Menten constant (Km) (usually the concentration of substrate that gives half-maximal velocity) worked out at 330.43 µM; the kcat (commonly the maximal rate divided by the concentration of active sites) came out at 6.22 s⁻¹; the kcat/Km (in general, the turnover number divided by the Michaelis constant) turned out to be 17617.56 M⁻¹ s⁻¹.
